The record followed here is patent US20100029573A1 (IMMATICS BIOTECHNOLOGIES, published 2010).

Assay [1] addresses MHC-A*02 tetramers complexed with the peptide … (human). Description: double tetramer staining, flow cytometry. (In general: A flow cytometer gives signals particle by particle.)
For assay [2], the target named is T1, HLA-B*0702 (human).
T1 construct: MHC class I molecule without the peptide
Description: peptide-pulsed KM22 cells; recombinant B*0702 tetramers made with the peptide.
Description: For the CTL assays, KM22 and JY tumor cell lines were used as target cells. Peptide-pulsed cells were pulsed with 50 μg/mL peptide for 2 hours. […] Then, 10⁴ cells/well were added to a 96-well round bottom plate. Various numbers of CTL were added to obtain an end volume of 200 μL, with subsequent incubation for 4 hrs at 37° C. Then, supernatants (500 μL/well) were harvested and counted in a beta-plate counter. Specific lysis was calculated in percent as follows: 100×(experimental release−spontaneous release/maximum release−spontaneous release). Each, spontaneous and maximum release were determined in presence of either medium or 2% Triton X-100.
Cell lines KM22 and JY are HLA-B*07 positive.

Assay [3] concerns the target T1, HLA-B*0702. The experiment in a line: recombinant B*0702 complexed with peptide, tetramer and microspheres. An excerpt:
Predetermined avidity of human CD8 T cells expanded on calibrated MHC/anti-CD28-coated microspheres. J. Immunol. […] Each dot represents the percentage of tetramer+among CD8+ lymphocytes from one well.

In turn, “CD8-positive T cells stimulated with RGS-5 peptide …/MHC-A*02 tetramer complexes” registered a percent of stimulated cells binding the tetramer in assay [1] of 8%.
Still for that read-out and setting: for “CD8-positive T cells stimulated with melan-A peptide/MHC-A*02 tetramer complexes” the value was 19.3%.

B1: FPSLREAAL (peptide)
peptide: FPSLREAAL
notes: also called MAGEA1; MAGE-1
As for B1, in assay [2], the binding result is “binds”.

B2: IARNLTQQL (peptide)
peptide: IARNLTQQL
notes: also called ADFP
For B2, the binding result in assay [3] is reported as “binds”.
